Test results from the Immune Epitope Database (IEDB).

Key:
Test in all cases: IEDB peptide-MHC binding, cellular MHC/competitive/fluorescence; ≥ and ≤ were set here for values at or beyond the usual limits of such assays
HLA-A*02:01 = target: HLA-A*02:01
HLA-A*02:02 = target: HLA-A*02:02
HLA-A*02:03 = target: HLA-A*02:03
HLA-A*02:06 = target: HLA-A*02:06
HLA-A*68:02 = target: HLA-A*68:02
[1] = source organism: Vaccinia virus WR
[2] = source organism: Hepacivirus hominis
[3] = source organism: Influenza A virus
[4] = source organism: Mammarenavirus choriomeningitidis

Row | Sequence | IC50 (HLA-A*02:01; [1]) [µM] | IC50 (HLA-A*02:02; [1]) [µM] | IC50 (HLA-A*02:03; [1]) [µM] | IC50 (HLA-A*02:06; [1]) [µM] | IC50 (HLA-A*68:02; [1]) [µM] | also measured
1 | NLCKYLRGHT | 37.9 | 39.6 | 8.04 | ≥ 70 | 12.3 | –
2 | NILGGVLHT | 41.7 | ≥ 70 | 20.6 | 9.97 | ≥ 70 | –
3 | DISVNASKTI | 14.7 | 46.8 | 11.9 | ≥ 70 | 14.5 | –
4 | ELVMDKNHAI | ≥ 70 | 14.2 | ≥ 70 | ≥ 70 | 19.5 | –
5 | LLGLLLLCV | – | – | – | – | – | IC50 (HLA-A*02:01; [2]): 7.37 µM; IC50 (HLA-A*02:02; [2]): 9.77 µM; IC50 (HLA-A*02:03; [2]): 6.77 µM; IC50 (HLA-A*02:06; [2]): 19.1 µM; IC50 (HLA-A*68:02; [2]): ≥ 70 µM
6 | DVEKRILNT | 9.33 | 5.82 | 6.72 | ≥ 70 | ≥ 70 | –
7 | NINFNNSSII | 32.7 | 6.64 | 13.3 | 30.1 | 6.97 | –
8 | QTGINNVQSL | 48.1 | 20.2 | 24.4 | 53.6 | 11.6 | –
9 | ATYQRTRA | – | – | – | – | – | IC50 (HLA-A*02:01; [3]): ≥ 70 µM; IC50 (HLA-A*02:02; [3]): ≥ 70 µM; IC50 (HLA-A*02:03; [3]): ≥ 70 µM; IC50 (HLA-A*02:06; [3]): ≥ 70 µM; IC50 (HLA-A*68:02; [3]): ≥ 70 µM
10 | GTMPSLTMAC | – | – | – | – | – | IC50 (HLA-A*02:01; [4]): 34.7 µM; IC50 (HLA-A*02:02; [4]): 25.3 µM; IC50 (HLA-A*02:03; [4]): 16.4 µM; IC50 (HLA-A*02:06; [4]): 12.1 µM; IC50 (HLA-A*68:02; [4]): ≥ 70 µM
11 | DVGCLLTDT | ≥ 70 | ≥ 70 | 65.4 | ≥ 70 | ≥ 70 | –
12 | RINLLVQYGA | 9.16 | 10.3 | 15.3 | 7.65 | 21 | –
13 | RAVKLYRKL | – | – | – | – | – | IC50 (HLA-A*02:01; [3]): 53.5 µM; IC50 (HLA-A*02:02; [3]): ≥ 70 µM; IC50 (HLA-A*02:03; [3]): 49.9 µM; IC50 (HLA-A*02:06; [3]): ≥ 70 µM; IC50 (HLA-A*68:02; [3]): ≥ 70 µM
14 | TQFNFNGHT | ≥ 70 | 43.4 | 14.4 | 10 | 52.2 | –
15 | VMDKNHAIFT | 8.7 | 18.7 | 11.5 | ≥ 70 | 13 | –
16 | QTRSKAGLLV | – | – | – | – | – | IC50 (HLA-A*02:01; [3]): ≥ 70 µM; IC50 (HLA-A*02:02; [3]): ≥ 70 µM; IC50 (HLA-A*02:03; [3]): 22 µM; IC50 (HLA-A*02:06; [3]): ≥ 70 µM; IC50 (HLA-A*68:02; [3]): 50.9 µM
17 | RTWKVLSIMA | 8.48 | 24 | 6.05 | 5.75 | 8.2 | –
18 | ITGNKVKTEL | ≥ 70 | ≥ 70 | ≥ 70 | ≥ 70 | ≥ 70 | –
19 | PANINDKQIM | 32.3 | 49.5 | 43.1 | 10.9 | ≥ 70 | –
20 | SNSEDLLKAV | – | – | – | – | – | IC50 (HLA-A*02:01; [4]): 7.84 µM; IC50 (HLA-A*02:02; [4]): 17.8 µM; IC50 (HLA-A*02:03; [4]): 15.2 µM; IC50 (HLA-A*02:06; [4]): 10 µM; IC50 (HLA-A*68:02; [4]): 43 µM
21 | SADNHPKMI | 14.5 | 8.18 | 43.5 | ≥ 70 | ≥ 70 | –
22 | AIKQYGDIDL | 45.8 | 23.4 | 46.4 | ≥ 70 | 38.7 | –
23 | VAKCCSKTNT | 20.9 | 14.7 | 21.7 | 40.7 | ≥ 70 | –
24 | ATRRMIQL | – | – | – | – | – | IC50 (HLA-A*02:01; [3]): ≥ 70 µM; IC50 (HLA-A*02:02; [3]): ≥ 70 µM; IC50 (HLA-A*02:03; [3]): ≥ 70 µM; IC50 (HLA-A*02:06; [3]): ≥ 70 µM; IC50 (HLA-A*68:02; [3]): ≥ 70 µM
25 | GVEVRYIDI | 16.4 | 12 | 45.3 | 10.2 | ≥ 70 | –
26 | NVKDYSIV | – | – | – | – | – | IC50 (HLA-A*02:01; [3]): ≥ 70 µM; IC50 (HLA-A*02:02; [3]): ≥ 70 µM; IC50 (HLA-A*02:03; [3]): 6.53 µM; IC50 (HLA-A*02:06; [3]): ≥ 70 µM; IC50 (HLA-A*68:02; [3]): 11.3 µM
27 | ILLRAFTEEGA | – | – | – | – | – | IC50 (HLA-A*02:01; [3]): 11.9 µM; IC50 (HLA-A*02:02; [3]): 9.59 µM; IC50 (HLA-A*02:03; [3]): 26.5 µM; IC50 (HLA-A*02:06; [3]): 26.3 µM; IC50 (HLA-A*68:02; [3]): ≥ 70 µM
